Experimental data published in patent US20120071422A1 (MEDICAL DIAGNOSTIC LABORATORIES, published 2012).
One block for each binder: values may come before it.

B3: recombinant human IL-23 cytokine (p19 + p40) (ligand)
chain 1: RAVPGGSSPAWTQCQQLSQKLCTLAWSAHPLVGHMDLREEGDEETTNDVPHIQCGDGCDPQGLRDNSQFCLQRIHQGLIFYEKLLGSDIFTGEPSLLPDSPVGQLHASLLGLSQLLQPEGHHWETQQIPSLSPSQPWQRLLLRFKILRSLQAFVAVAARVFAHGAATLSP
chain 2: IWELKKDVYVVELDWYPDAPGEMVVLTCDTPEEDGITWTLDQSSEVLGSGKTLTIQVKEFGDAGQYTCHKGGEVLSHSLLLLHKKEDGIWSTDILKDQKEPKNKTFLRCEAKNYSGRFTCWWLTTISTDLTFSVKSSRGSSDPQGVTCGAATLSAERVRGDNKEYEYSVECQEDSACPAAEESLPIEVMVDAVHKLKYENYTSSFFIRDIIKPDPPKNLQLKPLKNSRQVEVSWEYPDTWSTPHSYFSLTFCVQVQGKSKREKKDRVFTDKTSATVICRKNASISVRAQDRYYSSSWSEWASVPCS
notes: Disulfide-linked heterodimer

How the values were obtained:
[1] = target: B3; experiment: immunoprecipitation and competitive ELISA
Protocol: We developed a competitive ELISA to further examine the ability of the deletion protein mutants (i.e., Δ9, Δ8,9 and 1-250 mutant) to compete (i.e., interfere) the binding of IL-23 cytokine to the full-length extracellular domain of IL-23Rα (See, “Materials & Methods”). Recombinant IL-23Rα-Fc fusion protein from R&D (2 μg/ml) was coated on the ELISA plate. IL-23 cytokine (50 ng) was added in the absence or presence of the deletion protein mutants as competitors.
Recombinant human IL-23R-Fc (2 μg/ml) (from R&D) was coated onto plates as a capture reagent. Biotinylated anti-p40 antibody (1:250) (which specifically recognizes the p40 subunit of IL-23) was used as a detection antibody. Streptavidin—horseradish peroxidase (HRP) (1:500) was added to detect the biotinlyated anti-p40 antibody. The peroxidase activity (representing the level of IL-23 captured onto plates) was measured by addition of a tetramethylbenzidine (TMB) substrate (100 μl/well). The color intensity was directly proportion to the amount of the bound IL-23 protein. The color was measured at optical density (OD) 450 nm using a microtiter plate reader.

[2] = target: T1, recombinant IL-12 (p35 + p40) (UniProt P29459 23-219; P29460 23-328); experiment: anti-Flag immunoprecipitation, anti-hIL-12/23 p40 immunoblot
T1 sequence (looked up) 1: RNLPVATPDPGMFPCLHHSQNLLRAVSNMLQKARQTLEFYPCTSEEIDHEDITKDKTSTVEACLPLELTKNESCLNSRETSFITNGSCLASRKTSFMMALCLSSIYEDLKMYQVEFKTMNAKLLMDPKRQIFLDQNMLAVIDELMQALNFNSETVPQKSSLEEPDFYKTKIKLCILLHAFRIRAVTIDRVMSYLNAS
T1 sequence (looked up) 2: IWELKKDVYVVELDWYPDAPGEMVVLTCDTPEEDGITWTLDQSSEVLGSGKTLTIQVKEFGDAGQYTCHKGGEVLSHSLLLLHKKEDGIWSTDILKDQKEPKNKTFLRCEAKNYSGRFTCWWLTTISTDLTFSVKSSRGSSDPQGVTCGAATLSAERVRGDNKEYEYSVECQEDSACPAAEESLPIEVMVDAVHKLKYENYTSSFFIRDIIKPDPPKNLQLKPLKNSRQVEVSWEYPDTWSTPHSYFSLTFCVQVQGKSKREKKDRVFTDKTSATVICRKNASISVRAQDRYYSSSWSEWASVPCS
Protocol: FIG. 17 depicts the binding specificity of the recombinant Δ9 protein. Immunoprecipitation experiments were performed using anti-Flag M2 affinity gel. Immunoblot experiment was performed to detect IL-12 and IL-23 in the precipitates using the anti-hIL-12/23 p40 (i.e., anti-human IL-12/23 p40). The recombinant Δ9 protein in the precipitates was detected by anti-human IL-23R. Only IL-23 but not IL-12 was detected in the reaction containing the recombinant Δ9 protein.
Culture medium from Δ9 transfection experiments was concentrated using Amicon ultra centrifugal filter 30K (Millipore), then Δ9 protein was affinity purified using anti-FLAG M2 affinity gel (Sigma). The immuno-complex was precipitated, washed and resuspended in PBS. 200 ng of either IL-12 or IL-23 was added to the suspension and incubated at 4° C. for 2 hours. […] The eluted product was analysed by immunoblot using anti-human p40 or anti-human IL-23R to detect the common p40 subunit of IL-12/IL-23 or Δ9, respectively. […] After extensive washing, the eluted product was analysed using anti-HIS (Invitrogen, Carlsbad Calif.), anti-human p40 or anti-human IL-23R(R&D Systems) to detect soluble IL-12Rβ1, the p40 subunit of IL-23 or Δ9, respectively. […] Immuno-precipitation was performed and analysed by immunoblot, probing with anti-hIL-12/23p40.

[3] = target: T2, recombinant human His-tagged soluble IL-12Rβ1 (human, UniProt P42701 24-545, limits assumed); experiment: anti-Flag immunoprecipitation without IL-23, anti-His immunoblot
T2 construct: Bought (R&D Systems); also called sIL-12Rβ1; shIL-12Rβ1; not shown: His tag
Source text: On the cell surface, human IL-23Rα combines with human IL-12Rβ1 to form the heterodimeric IL-23 receptor. Human IL12Rβ1 also partners with human IL12Rβ2 to form the cell-surface IL-12 receptor. We wanted to know whether Δ9 could link to human IL-12Rβ1 via IL-23, or indeed bind it directly.
Culture medium from Δ9 transfection experiments was concentrated using Amicon ultra centrifugal filter 30K (Millipore), then Δ9 protein was affinity purified using anti-FLAG M2 affinity gel (Sigma). The immuno-complex was precipitated, washed and resuspended in PBS. 200 ng of either IL-12 or IL-23 was added to the suspension and incubated at 4° C. for 2 hours. Reprecipitated FLAG-tagged Δ9 immuno-complex was again precipitated and eluted with excess FLAG peptide. The eluted product was analysed by immunoblot using anti-human p40 or anti-human IL-23R to detect the common p40 subunit of IL-12/IL-23 or Δ9, respectively. […] After extensive washing, the eluted product was analysed using anti-HIS (Invitrogen, Carlsbad Calif.), anti-human p40 or anti-human IL-23R(R&D Systems) to detect soluble IL-12Rβ1, the p40 subunit of IL-23 or Δ9, respectively. […] Immuno-precipitation was performed and analysed by immunoblot, probing with anti-hIL-12/23p40.

[4] = target: B3; experiment: anti-Flag immunoprecipitation, anti-p40 immunoblot
Protocol: 200 ng of human IL-23 cytokine was added to the immunoprecipitation reaction. The presence of IL-23 in the precipitate was examined by immunoblot using anti-hIL-12/23 p40 antibody.
In addition, we also prepared two (2) more IL-23Rα deletion mutants; namely, 1-250 mutant and 1-200 mutant. These deletion mutants were generated by PCR (See, FIG. 18). Together, all of the four (4) IL-23Rα protein variants (FIG. 18) were tagged with Flag sequence at the C-terminus. […] The culture media were collected 48 hours post-transfection. These four (4) deletion proteins were immunoprecipitated using anti-Flag affinity gel. 200 ng of IL-23 cytokine was added to the immunoprecipitation assay. […] We speculate that the 1-200 mutant may be improperly folded or missing a critical domain that is essential for binding to IL-23 cytokine. […]
Culture medium from Δ9 transfection experiments was concentrated using Amicon ultra centrifugal filter 30K (Millipore), then Δ9 protein was affinity purified using anti-FLAG M2 affinity gel (Sigma). […] The eluted product was analysed by immunoblot using anti-human p40 or anti-human IL-23R to detect the common p40 subunit of IL-12/IL-23 or Δ9, respectively. […] After extensive washing, the eluted product was analysed using anti-HIS (Invitrogen, Carlsbad Calif.), anti-human p40 or anti-human IL-23R(R&D Systems) to detect soluble IL-12Rβ1, the p40 subunit of IL-23 or Δ9, respectively.

[5] = target: T2, recombinant human His-tagged soluble …; experiment: anti-Flag immunoprecipitation of Δ9 with IL-23 (200 ng) and sIL-12Rβ1 (1 µg); IL-23 bound to Δ9
Protocol: Human IL12Rβ1 also partners with human IL12Rβ2 to form the cell-surface IL-12 receptor. We wanted to know whether Δ9 could link to human IL-12Rβ1 via IL-23, or indeed bind it directly.
Culture medium from Δ9 transfection experiments was concentrated using Amicon ultra centrifugal filter 30K (Millipore), then Δ9 protein was affinity purified using anti-FLAG M2 affinity gel (Sigma). The immuno-complex was precipitated, washed and resuspended in PBS. 200 ng of either IL-12 or IL-23 was added to the suspension and incubated at 4° C. for 2 hours. Reprecipitated FLAG-tagged Δ9 immuno-complex was again precipitated and eluted with excess FLAG peptide. The eluted product was analysed by immunoblot using anti-human p40 or anti-human IL-23R to detect the common p40 subunit of IL-12/IL-23 or Δ9, respectively. […] After extensive washing, the eluted product was analysed using anti-HIS (Invitrogen, Carlsbad Calif.), anti-human p40 or anti-human IL-23R(R&D Systems) to detect soluble IL-12Rβ1, the p40 subunit of IL-23 or Δ9, respectively. To examine the N-glycosylation modification on soluble human IL-23Rα, purified Δ9 was treated with N-Glycosidase F (PNGase F) at 37° C. for 1 hour followed by immunoblotting using anti-human IL-23R. […] Immuno-precipitation was performed and analysed by immunoblot, probing with anti-hIL-12/23p40.

binding result [1]: binds
B1: recombinant Δ8,9 protein (soluble truncated human IL-23Rα, exon 8 and 9 deletion splice variant), C-terminal Flag tag (receptor)
chain: GITNINCSGHIWVEPATIFKMGMNISIYCQAAIKNCQPRKLHFYKNGIKERFQITRINKTTARLWYKNFLEPHASMYCTAECPKHFQETLICGKDISSGYPPDIPDEVTCVIYEYSGNMTCTWNAGKLTYIDTKYVVHVKSLETEEEQQYLTSSYINISTDSLQGGKKYLVWVQAANALGMEESKQLQIHLDDIVIPSAAVISRAETINATVPKTIIYWDSQTTIEKVSCEMRYKATTNQTWNVKEFDTNFTYVQQSEFYLEPNIKYVFQVRCQETGKRYWQPWSSLFFHKTPETGLKEGSYC
notes: not shown: C-terminal Flag tag

binding result [2]: no binding (tested: 200 ng) | binding result [3]: no binding (tested: 1 µg) | binding result [4]: binds
B2: recombinant Δ9 protein (soluble truncated human IL-23Rα, exon 9 deletion splice variant), C-terminal Flag tag (receptor)
chain: GITNINCSGHIWVEPATIFKMGMNISIYCQAAIKNCQPRKLHFYKNGIKERFQITRINKTTARLWYKNFLEPHASMYCTAECPKHFQETLICGKDISSGYPPDIPDEVTCVIYEYSGNMTCTWNAGKLTYIDTKYVVHVKSLETEEEQQYLTSSYINISTDSLQGGKKYLVWVQAANALGMEESKQLQIHLDDIVIPSAAVISRAETINATVPKTIIYWDSQTTIEKVSCEMRYKATTNQTWNVKEFDTNFTYVQQSEFYLEPNIKYVFQVRCQETGKRYWQPWSSLFFHKTPETVPQVTSKAFQHDTWNSGLTVASISTGHLTSGLKEGSYC
modifications: N-glycosylated (sites not given)
notes: Said to be a monomer; also called Δ9 variant; Δ9 IL-23Rα; not shown: C-terminal Flag tag

Binder: B3
binding result [5]: binds
